This passage reports binding signal (fraction of RB19-27) and binding signal (fold vs RB19-22 or RB23-27) results from patent US6051396.

In series [1] the target is T1, trpE-RB23-27 fusion (Homo sapiens) (UniProt P06400).
T1 sequence: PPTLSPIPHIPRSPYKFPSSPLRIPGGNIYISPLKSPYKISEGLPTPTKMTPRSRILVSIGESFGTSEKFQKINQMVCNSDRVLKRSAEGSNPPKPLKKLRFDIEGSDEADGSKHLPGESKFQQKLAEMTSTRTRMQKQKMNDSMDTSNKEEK
To be noted: Southwestern blot; stated as RB19-27 having 20-fold higher affinity; 50 mM NaCl, pH 7.0, room temperature.

Series [2] addresses T2, trpE-RB19-27 fusion (Homo sapiens) (UniProt P06400).
T2 sequence: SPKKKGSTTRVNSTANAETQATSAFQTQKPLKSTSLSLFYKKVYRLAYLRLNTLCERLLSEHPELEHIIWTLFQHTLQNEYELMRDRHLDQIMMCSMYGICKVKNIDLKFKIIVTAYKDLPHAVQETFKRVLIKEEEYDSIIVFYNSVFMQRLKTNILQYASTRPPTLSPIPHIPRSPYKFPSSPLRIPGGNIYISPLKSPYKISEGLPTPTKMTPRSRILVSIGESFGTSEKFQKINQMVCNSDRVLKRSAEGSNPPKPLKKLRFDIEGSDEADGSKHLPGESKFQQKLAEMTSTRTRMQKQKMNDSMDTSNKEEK
The note with it: Southwestern blot; 20-fold higher affinity than either subregion; 50 mM NaCl, pH 7.0, room temperature.

Series [3] has as its target T3, trpE-RB19-22 fusion (Homo sapiens) (UniProt P06400).
T3 sequence: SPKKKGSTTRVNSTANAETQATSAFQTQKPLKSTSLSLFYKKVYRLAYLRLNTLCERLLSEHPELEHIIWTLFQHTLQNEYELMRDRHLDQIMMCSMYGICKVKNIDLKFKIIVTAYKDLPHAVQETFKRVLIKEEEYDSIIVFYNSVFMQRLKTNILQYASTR
The note with it: Southwestern blot; stated as RB19-27 having 20-fold higher affinity; 50 mM NaCl, pH 7.0, room temperature.

As for “pGEM1 plasmid DNA linearized by EcoRI, random-primed probe”, the binding signal (fraction of RB19-27) in series [1] and in series [3] was 0.05 each time. In series [2], this substance returned a binding signal (fold vs RB19-22 or RB23-27) of 20.
